According to patent US20190262368A1:

Assays:
[1] = target: human LOX1 on cells (human LOX1 transfected CHO TREX cells; endogenous on HAECs) (human) (UniProt P78380); assay: cell-based or functional assay
[2] = target: human LOX1 on cells (human LOX1 transfected CHO TREX cells; endogenous on HAECs) (human) (UniProt P78380); assay: row label missing; by the order of Table 5 taken as AGE BSA/hLOX1 CHO competition (FMAT, DyLight 649 AGE-BSA as competitor), Mean
[3] = target: recombinant human LOX1 (R&D Systems) (human) (UniProt P78380); assay: row label missing; by the order of Table 5 taken as CRP/hLOX1 competition (plate assay, biotin CRP as competitor, immobilised recombinant hLOX1), Mean
[4] = target: human LOX1 on cells (human LOX1 transfected CHO TREX cells; endogenous on HAECs) (human) (UniProt P78380); assay: row label missing; by the order of Table 5 taken as oxLDL/hLOX1 CHO competition (FMAT, DyLight 649 oxLDL as competitor), Mean
[5] = target: human LOX1 SNP K167N variant on transfected CHO TREX cells (human) (UniProt P78380); assay: row label missing; by the order of Table 5 taken as oxLDL/K167N hLOX1 CHO competition (FMAT, DyLight 649 oxLDL as competitor), Mean

23C11, commercially available mouse anti-LOX-1 antibody
IC50 (Mean) of oxLDL internalisation in hLOX1 CHO cells; row label missing, taken by the order of Table 5 [1]: 2.85 nM | IC50 (Mean) of oxLDL-dependent ROS generation in hLOX1 CHO cells; row label missing, taken by the order of Table 5 [1]: 10.1 nM | IC50 [2]: 1.15 nM | IC50 [3]: 11.1 nM | IC50 [4]: 2.2 nM | IC50 [5]: 1.31 nM
